The results in this text go back to US20230192818A1.

Substitutions are numbered along the chain they refer to.

For assay [1], the target named is biotinylated SARS-CoV-2 S1 variant B.1.351 (Example 5) (SARS-CoV-2) (UniProt P0DTC2). The experiment in a line: phage ELISA screening.
Assay [2] has as its target biotinylated SARS-CoV-2 S1 variant P.1 (Example 5) (SARS-CoV-2) (UniProt P0DTC2). The experiment in a line: phage ELISA screening.

B1: 12-11 (antibody, V domains shown)
VH: QVQLVESGGGVVQPGRSLRLSCAASGFSFGGYGMHWVRQAPGKGLEWVAVISYDGSNEYYADSVKGRFTISRDNSKNTLYLQMNSLRAEDTAVYYCAKSYSGSYSSYFDYWGQGTLVTVSS
VL: EIVLTQSPATLSLSPGERATLSCRASQSVGSYLAWYQQKPGQAPRLLIYDAVNRATGIPARFSGSGSGTDFTLTISSLEPEDFAVYYCQQRFTWPTTFGGGTKVEIK
For B1, the ELISA in assay [1] worked out at 18.8.

B2: 12-28 (antibody, V domains shown)
VH: QVQLVESGGGVVQPGRSLRLSCAASGFTFSSYAMHWVRQAPGKGLEWVAVISYDGTNEYYADSEKGRFTISRDNSKNTLYLQMNSLRAEDTAVYYCARAHGGSYFSGMDVWGQGTLVTVSS
VL: B1 VL with G30R, S31H, Y32H, V52S, R91S, F92G, T93S, T96L
B2 gave an ELISA in assay [1] of 8.63.

B3: 12-43 (antibody, V domains shown)
VH: B1 VH with S28I, G30S, G31S, K98R, S99P, Y100R, S105L, Y107A
VL: B1 VL with S31K, Y32S, A51T, V52S, F92G, T93S, W94F, T96L
In assay [1], B3 showed an ELISA of 4.82.

B4: 12-22 (antibody, V domains shown)
VH: B1 VH with S28T, G30S, G31S, S56N, N57H, K98R, S99P, Y100K, S105V
VL: B1 VL with G30R, S31H, Y32H, V52S, Q90E, F92S, T93D, T96I
As to B4, the ELISA in assay [1] was determined as 10.5.

B5: 12-20 (antibody, V domains shown)
VH: B1 VH with E58K, K98R, Y100K, S101G, S105Y, S106G, Y107P
VL: EIVLTQSPATLSLSPGERATLSCRASQSLGNYLAWYQQKPGQAPRLLIYDSSNRATGIPARFSGSGSGTDFTLTISSLEPEDFAVYYCQQRNTWPGVTFGGGTKVEIK
In turn, B5 yielded an ELISA in assay [1] of 13.3.

B6: 12-32 (antibody, V domains shown)
VH: B1 VH with S28T, G31T, G33A, S56N, E58K, S99T, Y100M, S105F, Y107A, Y110I
VL: EIVLTQSPATLSLSPGERATLSCRASQSIGSYLAWYQQKPGQAPRLLIYDVSNRATGIPARFSGSGSGTDFTLTISSLEPEDFAVYYCQQRDSFTFGGGTKVEIK
Take B6: the ELISA in assay [1] was 6.88.

B7: 12-36 (antibody, V domains shown)
VH: B1 VH with G30N, G31N, E58D, K98R, S99P, Y100N, S106N
VL: B1 VL with S28G, V29I, G30S, S31T, V52S, F92R, T93R, T96P
Molecule B7 yielded an ELISA in assay [1] of 5.51.

B8: 12-21 (antibody, V domains shown)
VH: B1 VH with E58K, K98R, S99P, Y100K, S101G, S103N, S105W, S106N, Y107A, Y110I
VL: EIVLTQSPATLSLSPGERATLSCRASQSVNSDLAWYQQKPGQAPRLLIYDASNRATGIPARFSGSGSGTDFTLTISSLEPEDFAVYYCQERSLFGGGTKVEIK
B8 came in with an ELISA in assay [1] of 11.7.

B9: 12-27 (antibody, V domains shown)
VH: B1 VH with N57T, E58K, K98R, S99P, Y100R, S101G, S105K, S106D, Y107A, Y110I
VL: B1 VL with Q27D, S28T, G30S, A51T, V52S, F92A, T93S, T96L, T97S
B9: the ELISA in assay [1] came to 8.83.

B10: 12-15 (antibody, V domains shown)
VH: B1 VH with E58K, K98R, S99P, S105I, Y107W
VL: B5 VL with L29V, G30S, N31S, Y32H, S51V, Q90V, N92S, T93D, G96P, V97L
In assay [1], B10 yielded an ELISA of 17.6.

B11: 12-17 (antibody, V domains shown)
VH: B1 VH with S28T, G31S, S56N, N57H, K98R, S99P, Y100H, S105T, S106A
VL: B1 VL with G30S, S31K, Y32F, V52S, Q89H, R91H, F92S, T93D, T96L
In turn, B11 had an ELISA in assay [1] of 16.2.

B12: 12-13 (antibody, V domains shown)
VH: B1 VH with G30S, G31T, E58K, K98R, S99P, Y100L, S105W, Y107W, Y110P
VL: B5 VL with L29V, N31S, S51A, S52V, T93S, G96P, V97A
Consider B12, for which the ELISA in assay [1] came to 18.1.

B13: 12-26 (antibody, V domains shown)
VH: B1 VH with S28T, G30S, G31N, G33A, V64E, Y100G, S105F, Y107P
VL: EIVLTQSPATLSLSPGERATLSCRASQSVSTSLAWYQQKPGQAPRLLIYDISNRATGIPARFSGSGSGTDFTLTISSLEPEDFAVYYCQQRRSGLTFGGGTKVEIK
In assay [1], B13 returned an ELISA of 9.05.

B14: 13-3 (antibody, V domains shown)
VH: QVQLVESGGGVVQPGRSLRLSCAASGFSFNNHAMHWVRQAPGKGLEWVAVISYDGSDKYYADSVKGRFTISRDNSKNTLYLQMNSLRAEDTAVYYCARNLLRGYGMDVWGQGTLVTVSS
VL: DIQMTQSPSSLSASVGDRVTITCRASQSIGDYLNWYQQKPGKAPKLLIYEASSLQSGVPSRFSGSGSGTDFTLTISSLQPEDFATYYCLHTYLPPYSFGQGTKVEIK
On to B14, for which the ELISA in assay [2] worked out at 19.5.

B15: 13-4 (antibody, V domains shown)
VH: QVQLVESGGGVVQPGRSLRLSCAASGFAFDDYAMHWVRQAPGKGLEWVAVISYDGSNKYYADSVKGRFTISRDNSKNTLYLQMNSLRAEDTAVYYCATLGYGDYPDYWGQGTLVTVSS
VL: B14 VL with G30T, D31R, E50A, L89Q, H90Q, L93N, P94F, Y96H, S97T
As for B15, the ELISA in assay [2] came to 18.9.

B16: 12-24 (antibody, V domains shown)
VH: QVQLVESGGGVVQPGRSLRLSCAASGFTFSNFPMHWVRQAPGKGLEWVAVISYDGNNKYYADSVKGRFTISRDNSKNTLYLQMNSLRAEDTAVYYCAKDHGDHYFDYWGQGTLVTVSS
VL: B13 VL with V29F, S30G, T31D, I51A, R92S, S93I, G94P, L95I
B16 showed an ELISA in assay [1] of 9.63.

B17: 13-1 (antibody, V domains shown)
VH: QVQLVESGGGVVQPGRSLRLSCAASGFTFSSYSMHWVRQAPGKGLEWVAVISYDGRNQYYADSVKGRFTISRDNSKNTLYLQMNSLRAEDTAVYYCAKGYGGNYYYMDGWGQGTLVTVSS
VL: B13 VL with S30G, T31D, S32F, I51T, R92S, S93I, G94R, L95G
The molecule B17 returned an ELISA in assay [2] of 22.2.

B18: 12-37 (antibody, V domains shown)
VH: QVQLVESGGGVVQPGRSLRFSCAGTGFTFSSYAMHWVRQAPGKGLEWVAVISYDGSNQYYADSVKGRFTISRDNSKNTLYLQMNSLRAEDTAVYYCARSRSGSYLAYFDYWGQGTLVTVSS
VL: B13 VL with V3E, Q27E, T31E, I51A, R92T, S93H, L95V
On to B18, for which, in assay [1], the ELISA worked out at 5.5.

B19: 12-39 (antibody, V domains shown)
VH: B2 VH with T56N, N57H, E64V, G101S, G107H, M108F, V110Y
VL: B13 VL with Q27E, V29I, S32Y, I51A, F83L, S93N, G94S
For B19, the ELISA in assay [1] was 5.09.

B20: 12-42 (antibody, V domains shown)
VH: B17 VH with S30G, S33G, R56S, N57H, Q58K, K98R, G99A, Y100L, M107F, G109Y
VL: B13 VL with S30D, T31S, S32R, I51T, R92S, G94N, L95W
Molecule B20 displayed an ELISA in assay [1] of 4.93.

B21: 12-16 (antibody, V domains shown)
VH: QVQLVESGGGVVQPGRSLRLSCAASGFIFRSYAMHWVRQAPGKGLEWVAVISYDGSSKYYADSVKGRFTISRDNSKNTLYLQMNSLRAEDTAVYYCARTLGGSYFAAFDIWGQGTLVTVSS
VL: B5 VL with G30D, N31S, S51V, N92R, T93G, G96P
Molecule B21 registered an ELISA in assay [1] of 17.

B22: 12-19 (antibody, V domains shown)
VH: B2 VH with T28A, N57Y, E64V, A99S, H100L
VL: B5 VL with L29I, G30S, N31R, S51V, R91S, N92S, T93N, G96L, V97F
With B22, the ELISA in assay [1] was found to be 13.8.

B23: 12-34 (antibody, V domains shown)
VH: B21 VH with T99P, L100S, A106D, A107P, I110Y
VL: B6 VL with I29V, S31N, Y32F, V51A, Q90H, D92R, S93L, F94L
In assay [1], B23 returned an ELISA of 5.81.

B24: 12-29 (antibody, V domains shown)
VH: QVQLVESGGGVVQPGRSLRLSCAASGFSFSNYGMHWVRQAPGKGLEWVAVISYDGNNKYYADSVKGRFTISRDNSKNTLYLQMNSLRAEDTAVYYCARSKGGSYYGPFDDWGQGTLVTVSS
VL: B5 VL with S28I, L29I, G30S, N31S, S51T, Q90V, N92S, T93N, G96P, V97L
On to B24, for which the ELISA in assay [1] worked out at 7.55.

B25: 12-31 (antibody, V domains shown)
VH: B21 VH with I28T, R30S, S31Y, A33T, I51T, S57N, T99P
VL: B6 VL
In the case of B25, in assay [1], the ELISA was found to be 7.01.
